Legend:
[1] = molecular target: T1, RsmE dimer (P64W, C-terminal His6) (UniProt P0DPC3 1-64, P64W); test: NMR; 1:1 semi-holo complex; no minor conformations; 30 mM NaCl, 50 mM potassium phosphate pH 7.2; ITC at 298 K (NaCl varied in Supp. Fig. 8), RNA titrated into 10 uM RsmE monomer, sequential two-site model; NMR at 303/313 K with 3% D2O; settings: protein: recombinant; tags: C-terminal 6xHis; chain copies: 2; hairpin, 4 bp stem
T1 sequence: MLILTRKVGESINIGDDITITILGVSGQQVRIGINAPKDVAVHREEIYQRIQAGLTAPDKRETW

RsmE P64W [2] = molecular target: T2, RsmE P64W (Pseudomonas protegens, UniProt P0DPC3, P64W); test: ITC; other site of the dimer holds one 4bpSL2 RNA; 50 mM potassium phosphate pH 7.2, 30 mM NaCl, 298 K; 10 uM monomer in the cell; settings: tags: C-His6 (kept); chain copies: 2; hairpin; 2 copies of the RNA per protein dimer, value for the second
T2 sequence: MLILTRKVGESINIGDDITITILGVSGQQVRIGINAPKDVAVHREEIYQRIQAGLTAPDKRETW

RsmE P64W [3] = molecular target: T2, RsmE P64W; test: ITC; 50 mM potassium phosphate pH 7.2, 30 mM NaCl, 298 K; 10 uM monomer in the cell; settings: tags: C-His6 (kept); chain copies: 2; hairpin; 1 RNA per protein dimer
RsmE P64W [4] = molecular target: T2, RsmE P64W; test: ITC; 50 mM potassium phosphate pH 7.2, 100 mM NaCl, 298 K; 10 uM monomer in the cell; settings: tags: C-His6 (kept); chain copies: 2; hairpin; 1 RNA per protein dimer
RsmE P64W [5] = molecular target: T2, RsmE P64W; test: ITC; other site of the dimer holds one SL2 RNA; 50 mM potassium phosphate pH 7.2, 100 mM NaCl, 298 K; 10 uM monomer in the cell; settings: tags: C-His6 (kept); chain copies: 2; hairpin; 2 copies of the RNA per protein dimer, value for the second
RsmE P64W [6] = molecular target: T2, RsmE P64W; test: ITC; 50 mM potassium phosphate pH 7.2, 10 mM NaCl, 298 K; 10 uM monomer in the cell; settings: tags: C-His6 (kept); chain copies: 2; hairpin; 1 RNA per protein dimer
RsmE P64W [7] = molecular target: T2, RsmE P64W; test: ITC; other site of the dimer holds one SL2 RNA; 50 mM potassium phosphate pH 7.2, 10 mM NaCl, 298 K; 10 uM monomer in the cell; settings: tags: C-His6 (kept); chain copies: 2; hairpin; 2 copies of the RNA per protein dimer, value for the second
RsmE P64W [8] = molecular target: T2, RsmE P64W; test: ITC; 50 mM potassium phosphate pH 7.2, 300 mM NaCl, 298 K; 10 uM monomer in the cell; settings: tags: C-His6 (kept); chain copies: 2; hairpin; 1 RNA per protein dimer
RsmE P64W [9] = molecular target: T2, RsmE P64W; test: ITC; other site of the dimer holds one SL2 RNA; 50 mM potassium phosphate pH 7.2, 30 mM NaCl, 298 K; 10 uM monomer in the cell; settings: tags: C-His6 (kept), chain copies: 2
RsmE P64W [10] = molecular target: T2, RsmE P64W; test: ITC; other site of the dimer holds one SL2 RNA; 50 mM potassium phosphate pH 7.2, 300 mM NaCl, 298 K; 10 uM monomer in the cell; settings: tags: C-His6 (kept); chain copies: 2; hairpin; 2 copies of the RNA per protein dimer, value for the second
[11] = molecular target: T1, RsmE dimer (P64W, C-terminal His6); test: ITC; first site (Kd1); 30 mM NaCl; text: likely upper bound, true value may be <1 nM; 30 mM NaCl, 50 mM potassium phosphate pH 7.2; ITC at 298 K (NaCl varied in Supp. Fig. 8), RNA titrated into 10 uM RsmE monomer, sequential two-site model; NMR at 303/313 K with 3% D2O; settings: protein: recombinant; tags: C-terminal 6xHis; chain copies: 2; hairpin, hexaloop
[12] = molecular target: T1, RsmE dimer (P64W, C-terminal His6); test: ITC; apo RsmE dimer, first site; 30 mM NaCl, 50 mM potassium phosphate pH 7.2; ITC at 298 K (NaCl varied in Supp. Fig. 8), RNA titrated into 10 uM RsmE monomer, sequential two-site model; NMR at 303/313 K with 3% D2O; settings: protein: recombinant; tags: C-terminal 6xHis; chain copies: 2; hairpin
RsmE P64W [13] = molecular target: T2, RsmE P64W; test: ITC; other site of the dimer holds one hcnA RNA; 50 mM potassium phosphate pH 7.2, 30 mM NaCl, 298 K; 10 uM monomer in the cell; settings: tags: C-His6 (kept); chain copies: 2; hairpin; 2 copies of the RNA per protein dimer, value for the second

B1: 4bpSL2 RNA (structured_RNA)
RNA: GGAUCAAGGACGAUCC
binding result [1]: binds

B2: 4bpSL2 (ssRNA)
RNA: GGAUCAAGGACGAUCC
modifications: T7 transcript (5' triphosphate expected)
Kd (RsmE P64W [2]): 0.0972 ± 0.00358 µM | Kd (RsmE P64W [3]): 0.0216 ± 0.00256 µM

B3: SL2 (ssRNA)
RNA: GGGCCAUCAAGGACGAUGGUCC
modifications: T7 transcript (5' triphosphate expected)
Kd (RsmE P64W [4]): 0.00571 ± 0.00135 µM | Kd (RsmE P64W [5]): 0.0642 ± 0.00323 µM | Kd (RsmE P64W [6]): < 0.000943 µM | Kd (RsmE P64W [7]): 0.0223 ± 0.00206 µM | Kd (RsmE P64W [3]): < 0.00145 µM | Kd (RsmE P64W [8]): 0.0155 ± 0.00151 µM | Kd (RsmE P64W [9]; hairpin, 2 copies of the RNA per protein dimer, value for the second): 0.0311 ± 0.00278 µM | Kd (RsmE P64W [10]): 0.118 ± 0.00414 µM

B4: hcnA SD (ssRNA)
RNA 1: GGGCUUCACGGAUGAAGCCC
RNA 2: GGGCCAUCAAGGACGAUGGUCC
modifications: T7 transcript (5' triphosphate expected)
Kd (RsmE P64W [9]; two separate hairpins, one per site): 0.297 ± 0.0114 µM

B5: SL2 RNA (RsmZ) (structured_RNA)
RNA: GGGCCAUCAAGGACGAUGGUCC
Kd [11]: 0.0014 µM

B6: hcnA SD RNA (structured_RNA)
RNA: GGGCUUCACGGAUGAAGCCC
Kd [12]: ~0.01 µM

B7: hcnA SD (ssRNA)
RNA: GGGCUUCACGGAUGAAGCCC
modifications: T7 transcript (5' triphosphate expected)
Kd (RsmE P64W [13]): 0.218 ± 0.0128 µM | Kd (RsmE P64W [3]): 0.00867 ± 0.00202 µM

From PMC13287468, “Newton’s cradle-like allosteric mechanism explains regulatory RsmE RNA binding”
